In patent publication US20250092426, “CAS ENDONUCLEASES AND RELATED METHODS” (Flagship Pioneering Innovations VII, LLC, published 2025):

Target: T1, CasEnd-4 (synthetic construct)
T1 chain: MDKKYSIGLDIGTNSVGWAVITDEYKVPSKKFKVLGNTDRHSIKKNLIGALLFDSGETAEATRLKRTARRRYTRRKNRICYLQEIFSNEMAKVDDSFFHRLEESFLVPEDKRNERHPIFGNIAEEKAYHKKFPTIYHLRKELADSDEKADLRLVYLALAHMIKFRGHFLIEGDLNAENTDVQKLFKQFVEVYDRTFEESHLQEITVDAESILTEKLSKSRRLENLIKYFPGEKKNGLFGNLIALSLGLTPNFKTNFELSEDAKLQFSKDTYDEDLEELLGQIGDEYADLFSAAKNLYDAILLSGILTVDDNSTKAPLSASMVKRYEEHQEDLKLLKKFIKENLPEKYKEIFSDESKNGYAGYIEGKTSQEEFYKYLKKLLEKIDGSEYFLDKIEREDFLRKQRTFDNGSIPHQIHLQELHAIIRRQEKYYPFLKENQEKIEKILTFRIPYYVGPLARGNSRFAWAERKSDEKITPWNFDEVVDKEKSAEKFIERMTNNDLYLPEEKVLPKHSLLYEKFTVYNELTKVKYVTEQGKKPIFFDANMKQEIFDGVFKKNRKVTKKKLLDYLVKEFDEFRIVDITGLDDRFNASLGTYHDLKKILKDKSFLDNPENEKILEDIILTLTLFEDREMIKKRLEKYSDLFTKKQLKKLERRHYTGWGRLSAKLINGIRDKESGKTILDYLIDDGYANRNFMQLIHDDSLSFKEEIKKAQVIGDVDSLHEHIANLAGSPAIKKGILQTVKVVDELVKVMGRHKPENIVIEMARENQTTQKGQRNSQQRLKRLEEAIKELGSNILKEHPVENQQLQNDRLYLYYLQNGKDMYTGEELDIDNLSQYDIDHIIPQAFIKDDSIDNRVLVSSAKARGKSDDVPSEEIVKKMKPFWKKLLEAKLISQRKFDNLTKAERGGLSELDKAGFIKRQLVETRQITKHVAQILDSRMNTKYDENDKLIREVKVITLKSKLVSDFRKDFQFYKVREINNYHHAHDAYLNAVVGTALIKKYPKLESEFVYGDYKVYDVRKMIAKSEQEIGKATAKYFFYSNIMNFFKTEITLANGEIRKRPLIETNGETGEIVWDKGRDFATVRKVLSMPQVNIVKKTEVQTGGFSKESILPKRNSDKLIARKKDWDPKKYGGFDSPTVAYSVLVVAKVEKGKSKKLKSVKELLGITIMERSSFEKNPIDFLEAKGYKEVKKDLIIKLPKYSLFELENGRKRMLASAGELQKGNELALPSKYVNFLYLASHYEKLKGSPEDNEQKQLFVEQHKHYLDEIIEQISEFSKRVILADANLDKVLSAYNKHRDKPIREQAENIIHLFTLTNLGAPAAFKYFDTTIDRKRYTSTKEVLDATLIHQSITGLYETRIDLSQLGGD
Experiment: cell_activity; +++; HEK293T; PAM not stated
How it was run: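 Editing activity was scored as the fraction of GFP+ cells on day 4 by flow cytometry. BFP-expressing HEK293T cells (250,000) received by nucleofection 200 ng plasmid for the RT-Cas fusion protein and 200 ng template RNA plasmid designed to convert BFP to GFP.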

B1: BFP-to-GFP template RNA ; BFP reporter protospacer (ssRNA ; dsDNA)
RNA: GCCGAAGCACUGCACGCCGUGUUUUAGAGCUAGAAAUAGCAAGUUAAAAUAAGGCUAGUCCGUUAUCAACUUGAAAAAGUGGCACCGAGUCGGUGCACCCUGACGUACGGCGUGCAGUGCUU
DNA 1: GCCGAAGCACTGCACGCCGT
DNA 2: ACGGCGTGCAGTGCTTCGGC
With B1 the activity was ≥ 100 % of reference.
